± gives the uncertainty stated by the source.
Assay: self-splicing fitness, log relative to wild type (ln ratio); higher = more splicing; Tetrahymena group I intron in knt gene, E. coli kanamycin selection, DiMSum; sequences stand for … in CUCUCU…GGAGGGAAAAGUUAUCAGGCAUGCACCUGGUAGCUAGUCUUUAAACCAAUAGAUUGCAUCGGUUUAAAAGGCAAGACCGUCAAAUUGCGGGAAAGGGGUCAACAGCCGUUCAGUACCAAGUCUCAGGGGAAACUUUGAGAUGGCCUUGCAAAGGGUAUGGUAAUAAGCUGACGGACAUGGUCCUAACCACGCAGCCAAGUCCUAAGUCAACAGAUCUUCUGUUGAUAUGGAUGCAGUUCACAGACUAAAUGUCGGUCGGGGAAGAUGUAUUCUUCUCAUAAGAUAUAGUCGGACCUCUCCUUAAUGGGAGCUAGCGGAUGAAGUGAUGCAACACUGGAGCCGCUGGGAACUAAUUUGUAUGCGAAAGUAUAUUGAUUAGUUUUGGAGUACUCGUGGUCG
In short: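 A randomised library covering all eight P1ex-region intron nucleotides was built with the intron in the knt kanamycin-resistance gene on pET-22b(+) and held in E. coli BL21(DE3). Cells were grown overnight at 37°C or 30°C on LB agar, with or without 25 μg/mL kanamycin, plus 100 μg/mL carbenicillin, 50 μM IPTG and 0.2% rhamnose, and pooled colonies were amplicon-sequenced on an Illumina HiSeq 2500. DiMSum fitness is the error-weighted combination of wild-type-normalised replicate fold changes, kanamycin versus none.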

| Sequence | self-splicing fitness (ln) (30 °C) | self-splicing fitness (ln) (37 °C) |
| --- | --- | --- |
| ACCGAGCAAUAUUACGUCAA | -3.16 ± 0.19 | -2.36 ± 0.3 |
| ACCGAGCAAUAUUACGUCGC | -3.69 ± 0.28 |  |
| ACCGAGCAAUAUUACGUGGC | -4.18 ± 0.2 | -2.21 ± 0.18 |
| ACCGAGCAAUAUUACGUGUU | -3.76 ± 0.19 | -2.65 ± 0.24 |
| ACCGAGCAAUAUUACGUUGA | -2.98 ± 0.17 | -2.59 ± 0.21 |
| ACCGAGCAAUAUUACGUUGG | -4.16 ± 0.27 | -2.41 ± 0.22 |
| ACCUAGCAAUAUUACGAAAA | -2.66 ± 0.18 | -1.7 ± 0.13 |
| ACCUAGCAAUAUUACGAACU | -0.308 ± 0.084 | 0.0875 ± 0.11 |
| ACCUAGCAAUAUUACGACGU | -0.142 ± 0.071 | 0.371 ± 0.084 |
| ACCUAGCAAUAUUACGAGGU | -3.09 ± 0.17 | -2.43 ± 0.17 |
| ACCUAGCAAUAUUACGCAAC | -1.98 ± 0.16 | -0.895 ± 0.094 |
| ACCUAGCAAUAUUACGCCAA | -3.4 ± 0.27 | -2.09 ± 0.23 |
| ACCUAGCAAUAUUACGCCCU | -0.142 ± 0.12 | -0.462 ± 0.14 |
| ACCUAGCAAUAUUACGCCUG | -2.69 ± 0.19 | -1.66 ± 0.22 |
| ACCUAGCAAUAUUACGCGAA | -3.01 ± 0.19 | -1.99 ± 0.12 |
| ACCUAGCAAUAUUACGCGUA | -2.46 ± 0.17 | -1.22 ± 0.11 |
| ACCUAGCAAUAUUACGGCUA | -2.93 ± 0.13 | -2.65 ± 0.17 |
| ACCUAGCAAUAUUACGGUAU | -3.08 ± 0.14 | -1.44 ± 0.11 |
| ACCUAGCAAUAUUACGGUUC | -4.77 ± 0.34 | -2.62 ± 0.24 |
| ACCUAGCAAUAUUACGGUUU | -1.85 ± 0.065 | -0.482 ± 0.087 |
| ACCUAGCAAUAUUACGUAGU | -2.07 ± 0.09 | -0.568 ± 0.081 |
| ACCUAGCAAUAUUACGUCCU | -0.685 ± 0.067 | -0.579 ± 0.075 |
| ACCUAGCAAUAUUACGUCUC | -1.59 ± 0.096 | -0.658 ± 0.14 |
| ACCUAGCAAUAUUACGUUGU | -1.79 ± 0.066 | -1.12 ± 0.082 |

| Sequence | self-splicing fitness (ln) (30 °C) | self-splicing fitness (ln) (37 °C) |
| --- | --- | --- |
| ACCUAGCAAUAUUACGUUUC | -3.55 ± 0.13 | -1.94 ± 0.13 |
| ACGAAGCAAUAUUACGAAGC | -3.6 ± 0.27 | -2.61 ± 0.3 |
| ACGAAGCAAUAUUACGAAGU | -3.44 ± 0.16 | -2.86 ± 0.2 |
| ACGAAGCAAUAUUACGACGG | -1.2 ± 0.12 | -0.994 ± 0.094 |
| ACGAAGCAAUAUUACGAGAU | -4.36 ± 0.17 | -1.79 ± 0.16 |
| ACGAAGCAAUAUUACGAUGA | -1.88 ± 0.18 | -1.29 ± 0.17 |
| ACGAAGCAAUAUUACGCAGC | -2.47 ± 0.21 | -0.916 ± 0.18 |
| ACGAAGCAAUAUUACGCCCC | -0.521 ± 0.21 | -2.24 ± 0.39 |
| ACGAAGCAAUAUUACGCGCG | -0.867 ± 0.12 | -0.486 ± 0.18 |
| ACGAAGCAAUAUUACGCUUU | -3.88 ± 0.22 | -2.63 ± 0.22 |
| ACGAAGCAAUAUUACGGCUC | -3.05 ± 0.22 | -1.62 ± 0.23 |
| ACGAAGCAAUAUUACGGCUU | -3.97 ± 0.24 | -2.76 ± 0.22 |
| ACGAAGCAAUAUUACGGGCC | -2.74 ± 0.15 | -1.7 ± 0.14 |
| ACGAAGCAAUAUUACGGUGA | -2.33 ± 0.088 | -1.48 ± 0.085 |
| ACGAAGCAAUAUUACGUACC | -1.3 ± 0.14 | -1.17 ± 0.19 |
| ACGAAGCAAUAUUACGUAUU | -3.11 ± 0.087 | -2.18 ± 0.093 |
| ACGAAGCAAUAUUACGUCCU | -0.493 ± 0.083 | -0.288 ± 0.11 |
| ACGAAGCAAUAUUACGUCUG | -0.601 ± 0.069 | -0.997 ± 0.092 |
| ACGAAGCAAUAUUACGUGAA | -2.43 ± 0.089 | -1.64 ± 0.13 |
| ACGAAGCAAUAUUACGUGAU | -2.04 ± 0.054 | -0.989 ± 0.072 |
| ACGAAGCAAUAUUACGUGGA | -2.7 ± 0.13 | -2.69 ± 0.18 |
| ACGAAGCAAUAUUACGUGUG | -2.16 ± 0.054 | -0.817 ± 0.063 |
| ACGAAGCAAUAUUACGUUCC | -2.97 ± 0.2 | -1.29 ± 0.16 |
| ACGCAGCAAUAUUACGACCC | -1.66 ± 0.18 | -0.0893 ± 0.28 |

Source: the supplement of paper PMC7877785
